Assay results as given in article PMC10501992, “How Pol α-primase is targeted to replisomes to prime eukaryotic DNA replication” (Molecular Cell, 2023).

T1: Mrc1 (budding yeast) (S. cerevisiae, UniProt P25588 1-1096)
T1 construct: Mrc1, S. cerevisiae; several small sections modelled (S339-K323 as printed, D468-Q483, N842-E858); source: S. cerevisiae strain yJY32, expressed and purified as described previously
T1 sequence: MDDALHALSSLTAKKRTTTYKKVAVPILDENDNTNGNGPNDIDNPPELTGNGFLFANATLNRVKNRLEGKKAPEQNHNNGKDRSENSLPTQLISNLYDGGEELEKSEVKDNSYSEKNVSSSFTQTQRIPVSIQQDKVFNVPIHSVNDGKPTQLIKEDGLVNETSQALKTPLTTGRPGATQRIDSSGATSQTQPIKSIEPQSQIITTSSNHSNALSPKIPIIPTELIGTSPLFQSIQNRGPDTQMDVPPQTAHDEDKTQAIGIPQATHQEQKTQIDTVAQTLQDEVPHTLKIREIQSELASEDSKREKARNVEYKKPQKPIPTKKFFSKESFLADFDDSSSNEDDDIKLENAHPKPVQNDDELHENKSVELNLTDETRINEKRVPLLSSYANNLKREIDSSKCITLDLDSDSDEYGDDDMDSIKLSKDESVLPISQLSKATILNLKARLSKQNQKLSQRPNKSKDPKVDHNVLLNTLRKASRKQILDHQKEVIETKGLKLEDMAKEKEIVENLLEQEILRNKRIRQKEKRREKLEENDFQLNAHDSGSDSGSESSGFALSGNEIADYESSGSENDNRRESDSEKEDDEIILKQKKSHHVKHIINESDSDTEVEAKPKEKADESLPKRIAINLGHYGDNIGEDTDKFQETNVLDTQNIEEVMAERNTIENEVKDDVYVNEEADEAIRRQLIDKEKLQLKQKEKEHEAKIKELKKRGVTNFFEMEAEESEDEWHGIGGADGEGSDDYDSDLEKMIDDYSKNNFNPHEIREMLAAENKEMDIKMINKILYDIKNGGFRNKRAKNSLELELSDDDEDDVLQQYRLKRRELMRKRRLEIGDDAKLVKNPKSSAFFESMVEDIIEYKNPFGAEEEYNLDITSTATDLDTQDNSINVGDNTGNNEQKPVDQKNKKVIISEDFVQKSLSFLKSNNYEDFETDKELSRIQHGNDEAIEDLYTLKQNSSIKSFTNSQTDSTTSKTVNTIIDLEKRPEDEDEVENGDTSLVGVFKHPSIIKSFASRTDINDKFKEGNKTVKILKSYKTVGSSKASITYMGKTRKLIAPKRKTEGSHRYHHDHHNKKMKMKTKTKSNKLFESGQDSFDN

T2: PRIM2 (human primase accessory subunit) (human, UniProt P49643 1-509)
T2 construct: PRIM2, human; modelled residues 1-5 (N terminus) and 17-252 (NTD); stood in the assay as a subunit of m18; also called PRIM2NTD; PRIM2_(Nterm)
T2 sequence: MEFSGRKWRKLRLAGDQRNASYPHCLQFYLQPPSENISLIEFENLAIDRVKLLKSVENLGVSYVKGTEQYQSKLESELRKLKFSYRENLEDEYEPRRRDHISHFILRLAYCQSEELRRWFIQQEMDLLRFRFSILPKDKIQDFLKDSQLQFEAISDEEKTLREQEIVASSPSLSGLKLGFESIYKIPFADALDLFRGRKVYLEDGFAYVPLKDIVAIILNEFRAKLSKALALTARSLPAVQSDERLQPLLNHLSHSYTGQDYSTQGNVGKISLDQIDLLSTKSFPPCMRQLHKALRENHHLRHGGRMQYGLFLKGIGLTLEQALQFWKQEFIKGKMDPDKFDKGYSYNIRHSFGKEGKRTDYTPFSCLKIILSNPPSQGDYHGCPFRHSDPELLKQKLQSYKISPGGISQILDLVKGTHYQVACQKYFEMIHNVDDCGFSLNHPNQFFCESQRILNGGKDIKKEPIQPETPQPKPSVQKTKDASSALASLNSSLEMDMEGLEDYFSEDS


Tests used:
Settings in all cases: both partners purified
Mrc1 (budding yeast) = biological target: T1, Mrc1 (budding yeast); assay: cryo-EM structure; budding yeast replisome: 150 nM CMG on fork DNA (39 nt 3′ flap, 60 nt 5′ flap) with 1.5-fold molar excess of Tof1-Csm3, Mrc1 and Pol α-primase; 25 mM HEPES-NaOH pH 7.6, 150 mM NaOAc, 0.5 mM TCEP, 500 μM AMP-PNP, 10 mM Mg(OAc)2, on ice; 10-30% glycerol gradient with glutaraldehyde and BS3 cross-linkers
[1] = biological target: T2, PRIM2 (human primase accessory subunit); assay: cryo-EM structure; human replisome: 150 nM CMG on fork DNA (60 nt or 15 nt 5′ flap) with 1.5-fold molar excess of AND-1, TIMELESS-TIPIN, CLASPIN and Pol α-primase; 25 mM HEPES-NaOH pH 7.6, 150 mM NaOAc, 0.5 mM TCEP, 500 μM AMP-PNP, 10 mM Mg(OAc)2, on ice; 10-30% glycerol gradient with glutaraldehyde and BS3 cross-linkers
[2] = biological target: T3, budding yeast CMG (Cdc45-Mcm2-7-GINS) replicative helicase (S. cerevisiae, UniProt Q08032 1-650; P29469 1-868; P24279 1-971; P30665 1-933; P29496 1-775; P53091 …); assay: cryo-EM structure; budding yeast replisome: 150 nM CMG on fork DNA (39 nt 3′ flap, 60 nt 5′ flap) with 1.5-fold molar excess of Tof1-Csm3, Mrc1 and Pol α-primase; 25 mM HEPES-NaOH pH 7.6, 150 mM NaOAc, 0.5 mM TCEP, 500 μM AMP-PNP, 10 mM Mg(OAc)2, on ice; 10-30% glycerol gradient with glutaraldehyde and BS3 cross-linkers
T3 construct: Cdc45, S. cerevisiae; Mcm2, S. cerevisiae; Mcm3, S. cerevisiae; Mcm4, S. cerevisiae (named only within Mcm2-7); Mcm5, S. cerevisiae; Mcm6, S. cerevisiae (named only within Mcm2-7); Mcm7, S. cerevisiae (named only within Mcm2-7); Psf1, subunit of GINS, S. cerevisiae; Psf2, subunit of GINS, S. cerevisiae; Sld5, subunit of GINS, S. cerevisiae; source: S. cerevisiae strain yJY197, expressed and …

binding result (Mrc1 (budding yeast))	Binder	other results
binds	Cdc45 (budding yeast) (natural protein, S. cerevisiae, UniProt Q08032 1-650, looked up, Cdc45, S. cerevisiae; stood in the assay as a subunit of m2; source: subunit of CMG from S. cerevisiae strain yJY197, purified as described previously) MYYGISQFSEAYNKILRNSSSHSSCQLVIFVSCLNIDALCATKMLSLLFKKQLVQSQIVPIFGYSELRRHYSQLDDNINSLLLVGFGGVIDLEAFLEIDPQEYVIDTDEKSGEQSFRRDIYVLDAHRPWNLDNIFGSQIIQCFDDGTVDDTLGEQKEAYYKLLELDEESGDDELSGDENDNNGGDDEATDADEVTDEDEEDEDETISNKRGNSSIGPNDLSKRKQRKKQIHEYEGVLEEYYSQGTTVVNSISAQIYSLLSAIGETNLSNLWLNILGTTSLDIAYAQVYNRLYPLLQDEVKRLTPSSRNSVKTPDTLTLNIQPDYYLFLLRHSSLYDSFYYSNYVNAKLSLWNENGKKRLHKMFARMGIPLSTAQETWLYMDHSIKRELGIIFDKNLDRYGLQDIIRDGFVRTLGYRGSISASEFVEALTALLEVGNSTDKDSVKINNDNNDDTDGEEEEDNSAQKLTNLRKRWVSNFWLSWDALDDRKVELLNRGIQLAQDLQRAIFNTGVAILEKKLIKHLRIYRLCVLQDGPDLDLYRNPLTLLRLGNWLIECCAESEDKQLLPMVLASIDENTDTYLVAGLTPRYPRGLDTIHTKKPILNNFSMAFQQITAETDAKVRIDNFESSIIEIRREDLSPFLEKLTLSGLL	–
binds	Mcm2 (budding yeast) (natural protein, S. cerevisiae, Mcm2, S. cerevisiae; stood in the assay as a subunit of m2; source: subunit of CMG from S. cerevisiae strain yJY197, purified as described previously) MSDNRRRRREEDDSDSENELPPSSPQQHFRGGMNPVSSPIGSPDMINPEGDDNEVDDVPDIDEVEEQMNEVDLMDDNMYEDYAADHNRDRYDPDQVDDREQQELSLSERRRIDAQLNERDRLLRNVAYIDDEDEEQEGAAQLDEMGLPVQRRRRRRQYEDLENSDDDLLSDMDIDPLREELTLESLSNVKANSYSEWITQPNVSRTIARELKSFLLEYTDETGRSVYGARIRTLGEMNSESLEVNYRHLAESKAILALFLAKCPEEMLKIFDLVAMEATELHYPDYARIHSEIHVRISDFPTIYSLRELRESNLSSLVRVTGVVTRRTGVFPQLKYVKFNCLKCGSILGPFFQDSNEEIRISFCTNCKSKGPFRVNGEKTVYRNYQRVTLQEAPGTVPPGRLPRHREVILLADLVDVSKPGEEVEVTGIYKNNYDGNLNAKNGFPVFATIIEANSIKRREGNTANEGEEGLDVFSWTEEEEREFRKISRDRGIIDKIISSMAPSIYGHRDIKTAVACSLFGGVPKNVNGKHSIRGDINVLLLGDPGTAKSQILKYVEKTAHRAVFATGQGASAVGLTASVRKDPITKEWTLEGGALVLADKGVCLIDEFDKMNDQDRTSIHEAMEQQSISISKAGIVTTLQARCSIIAAANPNGGRYNSTLPLAQNVSLTEPILSRFDILCVVRDLVDEEADERLATFVVDSHVRSHPENDEDREGEELKNNGESAIEQGEDEINEQLNARQRRLQRQRKKEEEISPIPQELLMKYIHYARTKIYPKLHQMDMDKVSRVYADLRRESISTGSFPITVRHLESILRIAESFAKMRLSEFVSSYDLDRAIKVVVDSFVDAQKVSVRRQLRRSFAIYTLGH	–
–	PSF2 (human GINS subunit) (natural protein, PSF2, subunit of GINS, human; stood in the assay as a subunit of m19) MDAAEVEFLAEKELVTIIPNFSLDKIYLIGGDLGPFNPGLPVEVPLWLAINLKQRQKCRLLPPEWMDVEKLEKMRDHERKEETFTPMPSPYYMELTKLLLNHASDNIPKADEIRTLVKDMWDTRIAKLRVSADSFVRQQEAHAKLDNLTLMEINTSGTFLTQALNHMYKLRTNLQPLESTQSQDF	binding result [1]: binds
–	Tof1-Csm3 (budding yeast) (complex, S. cerevisiae, Tof1, S. cerevisiae; Csm3, S. cerevisiae; source: S. cerevisiae strain yAE48, expressed and purified as described previously) chain 1: MSADLQQGTTNAADFSLTVLRARIALLATAIGGPDYTSQIDPPPYKLGDDCLACLKDLKRWFKLVDDQQKRWDVAMAVAEYRILTDDLLPILIDWENKCSLAAKLAKNNPDHEEFRNKAYYDKIALNCLQLLVLMTWPLIVTEQSSSNQITLYGELKKHQLVYKKTILSMESGKVLRAAIRLALDVIKIDRLSRTPRDNMVLKLVLNFFRNVIAIEPGEFTINTKKSMPKKGITSIDTLPPNVSMDDISLNTVISSFHKNKVFGFLLTLTSSLSKEFDQDFINIPLLEIMFYFTKDVNQELLFPRQFETGTHSKVVNKNESSSANNIVTSAGFELSKLLQKEHQMRKNVIKHTSARHSRFGGLLSIQTPDKTRLTVSGSQALVDEKIALQKLDDSKKWNKRIIKKHQSVAAEGLPNSLLNSQTGKAIFFTESNGKHFKEFINNFIDSGFNILLHSVTNYFTTEQDRMVTLEQVEYLLFFAWFVKYQLLRSKIDNSADIKQVSEALKEVTFILVSSLLRSAYDLKNWTVTHAGMIAFNELLNLVSRTKAAQEEDSTDIEFIVSRLFSDERIQLLSNLPKIGSKYSLQFMKSCIELTHSVLKVLEQYSDDKTLVIEGKSRRQKKFNISEGDITKLIEEENVDRDEALDILTSSLRSIEVNFQKVQANYMTEPVIETYINFLERFRELEDDSIKKVFSFFHRVFVQAKEQALLFRFDLIILLREMLSPDGLDRMSRSRKYVSQFSDYFLARLKKRLKKSPAWFVGLLFPPLHNSEVGFYQRYGEYNVLNNESMYAAPASQFKPIPDEEALPPSILLDMKYGVLVSTLLDDGKTELLDQLLKHITHTLDIFKSWLTVNVNAGKETVNPPNEYFTLTGVLNNDPIFKDKDYRALLLLIGYSIPRKINEPCFLPGTVEVSDLTVSCELVKKYLSTPFETPNGLPSSSYLLRVRSEKDSFSHNEQDGWEGDDDYDYNDPYIVPDDQILSKSDAAYFKDLDNNASDKLKGTKFSKGIARSKKKDKRKRRKGEAKTNLPMFGDQDDERPQTVRERHGVFSKEFISDSEDDEDLMNPIFFENETYMRWLLDKNNGQLTEDRYIQFAKFAAERMNNGGVVTGDYTSLFGGSIPSIESIRATESSSFAPDKSLISLASHVASEMSIFDVNNNNNNQLSDDDVNSESRNSLGSSQPSNSQNMFQSEVYSRKESTKRSLEASAADESDEDEEAIRLFGKKSRVVLSQGDSDD chain 2: MDQDFDSLLLGFNDSDSVQKDPTVPNGLDGSVVDPTIADPTAITARKRRPQVKLTAEKLLSDKGLPYVLKNAHKRIRISSKKNSYDNLSNIIQFYQLWAHELFPKAKFKDFMKICQTVGKTDPVLREYRVSLFRDEMGMSFDVGTRETGQDLERQSPMVEEHVTSAEERPIVADSFAQDKRNVNNVDYDNDEDDDIYHLSYRNRRGRVLDERGNNETVLNNVVPPKEDLDALLKTFRVQGPVGLEENEKKLLLGWLDAHRKMEKGSMTEEDVQLIQSLEEWEMNDIEGQHTHYDLLPGGDEFGVDQDELDAMKEMGF	binding result [2]: binds
